Here are results for four molecules from paper PMC11511291, “Structures of the Varicella Zoster Virus Glycoprotein E and Epitope Mapping of Vaccine-Elicited Antibodies” (Vaccines, 2024).

The target of experiment [1] is T1, VZV glycoprotein E, full-length gE ectodomain (gE_FL) (Varicella-zoster virus; strain not …, UniProt P09259).
T1 construct: Varicella zoster virus glycoprotein E (gE), 'full-length gE ectodomain', includes the disordered N-terminal region (residues 1-115); The construct used in the HPLC-SEC binning is only called 'VZV gE'; also called FL gE; VZV gE; source: Expi293 cells, transfected, purified from culture supernatant (HisTrap, Superdex 200 SEC)
T1 sequence (P09259 whole entry, looked up, the tested form may be a part): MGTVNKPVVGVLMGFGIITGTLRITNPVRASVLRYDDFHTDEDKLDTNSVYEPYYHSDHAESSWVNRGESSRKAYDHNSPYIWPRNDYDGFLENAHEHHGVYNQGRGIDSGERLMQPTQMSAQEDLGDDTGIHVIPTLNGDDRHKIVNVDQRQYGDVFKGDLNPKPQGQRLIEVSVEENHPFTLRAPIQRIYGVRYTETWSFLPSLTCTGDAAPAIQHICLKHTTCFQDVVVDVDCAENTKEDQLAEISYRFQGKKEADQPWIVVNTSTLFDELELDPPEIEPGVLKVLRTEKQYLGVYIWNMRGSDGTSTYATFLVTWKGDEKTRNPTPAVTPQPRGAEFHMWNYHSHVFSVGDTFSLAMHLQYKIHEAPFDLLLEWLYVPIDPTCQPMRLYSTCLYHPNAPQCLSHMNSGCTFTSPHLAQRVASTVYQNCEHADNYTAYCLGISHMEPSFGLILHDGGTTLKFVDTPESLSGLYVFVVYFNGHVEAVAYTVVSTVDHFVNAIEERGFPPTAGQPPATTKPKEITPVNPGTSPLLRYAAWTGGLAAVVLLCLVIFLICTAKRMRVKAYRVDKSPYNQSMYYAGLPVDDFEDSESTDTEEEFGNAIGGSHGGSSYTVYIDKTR
In words: BLI; Octet Red96; Fabs loaded onto FAB2G biosensors (0.5 to 1.0 nm), gE as analyte at 25 nM to 1.6 nM; 1 x PBS with 1% BSA. The settings on record: both partners purified. (In general: In BLI a coated tip is dipped into the sample, and binding shifts an interference pattern.)

Experiment [2] has as its target T1, VZV glycoprotein E, full-length gE …. The experiment can be described thus: SEC; HPLC-SEC epitope binning: VZV gE mixed with primary Fab at mass ratio 1:3 for 10 min at room temperature, then with secondary Fab at the same ratio; Superdex 200 Increase 3.2/300. The following applies: both partners purified. A general note: Size exclusion chromatography separates by hydrodynamic size, large species first.

B1: Fab 5A2 (recombinant Fab of human anti-gE antibody 5A2, elicited by ZVL vaccination) (Fab, V domains shown)
VH: QVQLQESGPGLVKPSETLSLTCIVSGGSISRYYWSWIRQPPGRGLEWIGNIYYTGTTNYNPSLQSRVTISLDTSKNQFSLRLTSVTAADTAVYYCARIGGVSFGERPIDYWGQGTLVTVSS
VL: DIQMTQSPSSLSASVGDRVTITCRASQTISTYLNWYQQKPGKAPKLLIYAASTLQSGVPSRFSGSGSGTDFTLTITSLQPEDFAAYYCQQSYSIPLTFGGGTKVEIK
notes: also called 5A2 Fab; source: HEK293 Expi cells, transient, purified (StrepTrap HP, SEC)
Take B1: the binding result in experiment [1] is “binds”.

B2: Fab 1A2 (recombinant Fab of human anti-gE antibody 1A2, elicited by ZVL vaccination) (Fab, V domains shown)
VH: EVQLVQSGAEMKKPGASVKVSCKTSGYVFNEYYIHWVRQAPGQGLEWLGRINPNSGDANYAPKFQGRVTLTRDTSIRTYFMELNRLRSDDTAVYYCARIMYFEYDSWSDYWGQGTLVTVSS
VL: DIQMTQSPSSLSASVGDRVTITCRASQSIRSNLNWYQQKPGKAPNVLIYATSSLQSGVPSRFSGSGSGTDFTLTIRSLQPEDFATYYCQQSYSLPWTFGQGTKVEIK
notes: source: HEK293 Expi cells, transient, purified (StrepTrap HP, SEC)
As for B2, in experiment [1], the binding result is recorded as “binds”.

B3: Fab 1E3 (recombinant Fab of human anti-gE antibody 1E3, elicited by ZVL vaccination) (Fab, V domains shown)
VH: QVQLQESGPGLVKPSQTLSLTCTVSGGSISSNDYYWTWIRQSPGKGLEWIGFISYNGDTYYNPSLKRRGTISVDTSKIQFSLRLSSVTAADTAVYYCARVRTSSTTSYYFDYWGQGTLVTVSS
VL: DIQMTQSPSSLSASVGDRVTITCRASQGIRNYLNWYQQKPGKAPMLLIYGASSLQNGVPSRFSGSGSGTEFTLTISSLQPEDFATYYCQQSYRTLTFGPGTKVDIK
notes: also called 1E3 Fab; source: HEK293 Expi cells, transient, purified (StrepTrap HP, SEC)
Consider B3, for which the binding result in experiment [1] is given as “binds”.

B4: Fab 1E8 (recombinant Fab of human anti-gE antibody 1E8, elicited by ZVL vaccination) (Fab, V domains shown)
VH: QVQLQESGPGLVRPSQTLSLTCTVSGGSITSGSFYWSWVRQSAGKGLEWIGRIFKTGSTTYKPSLKSRVTMSVDTSKNQFSLKLSSVTATDTAVYFCARAPFYNDFSGYSYYFDYWGQGTLVTVSS
VL: QSVLTQPPSASGTPGQRVTISCSGSSSDIGPNTVHWYRQVPGTAPTLLIYSDNQRPSGVPARFSGSRSGTSASLAISGLQSEDEAIYYCAAWDDSLNPLYVFGTGTKVTVL
notes: as for B2
For the molecule B4, the binding result in experiment [2] was “binds”.
